Laboratory results taken from PMC4130213.

Legend:
[1] = system: CovR-P (phosphorylated CovR) (Streptococcus pyogenes (M6 serotype, JRS4?)); assay: DNase I footprinting; conditions: not given in the material (DNase I protection assay details absent)
[2] = system: CovR (unphosphorylated) (Streptococcus pyogenes (M6 serotype, JRS4?)); assay: DNase I footprinting; conditions: not given in the material (DNase I protection assay details absent)

Substance: Pska wild type
- binding signal [1]: 0.25 µM
- binding signal [2]: 3 µM
